{"source": "patent US20130195871A1", "about": "(AbbVie / Abbott, published 2013)", "binders": {"B1": {"name": "DVD2307 (bispecific antibody)", "VH": "EVQLVQSGGGLVKPGGSLRLSCAASGFTFSSFAMHWVRQAPGKGLEWISVIDTRGATYYADSVKGRFTISRDNAKNSLYLQMNSLRAEDTAVYYCARLGNFYYGMDVWGQGTTVTVSSASTKGPEVQLVESGGGLVQPGGSLRLSCAASGFSLTNYGVHWVRQAPGKGLEWLGVGWSGGNTDYNTPFTSRLTINKDNSKNTVYLQMNSLRAEDTAVYYCARALTWYDYEFAYWGQGTLVTVSS", "VL": "EIVLTQSPGTLSVSPGERATLSCRASQSIGSSLHWYQQKPGQAPRLLIKYASQSLSGIPDRFSGSGSGTDFTLTISRLEPEDFAVYYCHQSSRLPHTFGQGTKVEIKRTVAAPDILLTQSPGTLSLSPGERATLSCRASQSIYTNIHWYQQKPGQAPRLLIKYASESISGIPDRFSGSGSGTDFTLTISRLEPEDFAVYYCQQNLNWPTTFGQGTKLEIK", "notes": "DVD-Ig, outer AB077 / inner AB400"}, "B2": {"name": "DVD2343 (bispecific antibody)", "VH": "EVQLVESGGGLVQPGGSLRLSCAASGFTFTDYTMDWVRQAPGKGLEWVADVNPNSGGSIYNQRFKGRFTLSVDRSKNTLYLQMNSLRAEDTAVYYCARNLGPSFYFDYWGQGTLVTVSSASTKGPQVQLQESGPGLVKPSQTLSLTCTVSGYSISSDFAWNWIRQPPGKGLEWMGYISYSGNTRYQPSLKSRITISRDTSKNQFFLKLNSVTAADTATYYCVTAGRGFPYWGQGTLVTVSS", "VL": "DIQMTQSPSSLSASVGDRVTITCKASQDVSIGVAWYQQKPGKAPKLLIYSASYRYTGVPSRFSGSGSGTDFTLTISSLQPEDFATYYCQQYYIYPYTFGQGTKVEIKRTVAAPDIQMTQSPSSMSVSVGDRVTITCHSSQDINSNIGWLQQKPGKSFKGLIYHGTNLDDGVPSRFSGSGSGTDYTLTISSLQPEDFATYYCVQYAQFPWTFGGGTKLEIK"}, "B3": {"name": "DVD2338 (bispecific antibody)", "VH": "QVQLQESGPGLVKPSEILSLTCTVSGGSISSHYWSWVRQPPGKGLEWIGYIYYSGSTNYNPSLKSRVTISVDTSKNQFSLNLSSVTAADTAVYYCARIPNYYDRSGYYPGYWYFDLWGRGTLVTVSSASTKGPEVQLVESGGGLVQPGGSLRLSCAASGFSLTNYGVHWVRQAPGKGLEWLGVGWSGGNTDYNTPFTSRLTINKDNSKNTVYLQMNSLRAEDTAVYYCARALTWYDYEFAYWGQGTLVTVSS", "VL": "QAVLTQPSSLSAPPGASASLTCTLRSGFNVDSYRISWYQQKPGSPPQYLLRYKSDSDKQQGSGVPSRFSGSKDASANAGILLISGLQSEDEADYYCMIWHSSAWVFGGGTKLTVLRQPKAAPDILLTQSPGTLSLSPGERATLSCRASQSIYTNIHWYQQKPGQAPRLLIKYASESISGIPDRFSGSGSGTDFTLTISRLEPEDFAVYYCQQNLNWPTTFGQGTKLEIK", "notes": "DVD-Ig, outer AB034 / inner AB400"}, "B4": {"name": "DVD2299 (bispecific antibody)", "VH": "EVQLVQSGGGLVKPGGSLRLSCAASGFTFSSYAMHWVRQAPGKGLEWVAVISYDGSNKYYADSVKGRFTISRDNSKNTLYLQMNSLRAEDTAVYYCARFSGWPNNYYYYGMDVWGQGTTVTVSSASTKGPEVQLVESGGGLVQPGGSLRLSCAASGFSLTNYGVHWVRQAPGKGLEWLGVGWSGGNTDYNTPFTSRLTINKDNSKNTVYLQMNSLRAEDTAVYYCARALTWYDYEFAYWGQGTLVTVSS", "VL": "DVVMTQSPLSLPVTPGEPASISCRSSQSLLHSNGFNYVDWYLQKPGQSPHLLIYFGSYRASGVPDRFSGSGSGTDFTLKISRVEAEDVGVYYCMQALQTPPWTFGQGTKVEIRRTVAAPDILLTQSPGTLSLSPGERATLSCRASQSIYTNIHWYQQKPGQAPRLLIKYASESISGIPDRFSGSGSGTDFTLTISRLEPEDFAVYYCQQNLNWPTTFGQGTKLEIK", "notes": "DVD-Ig, outer AB005 / inner AB400"}, "B5": {"name": "DVD2303 (bispecific antibody)", "VH": "EVQLVESGGGLVQPGGSLRLSCAASGFTFTDYTMDWVRQAPGKGLEWVADVNPNSGGSIYNQRFKGRFTLSVDRSKNTLYLQMNSLRAEDTAVYYCARNLGPSFYFDYWGQGTLVTVSSASTKGPEVQLVESGGGLVQPGGSLRLSCAASGFSLTNYGVHWVRQAPGKGLEWLGVGWSGGNTDYNTPFTSRLTINKDNSKNTVYLQMNSLRAEDTAVYYCARALTWYDYEFAYWGQGTLVTVSS", "VL": "DIQMTQSPSSLSASVGDRVTITCKASQDVSIGVAWYQQKPGKAPKLLIYSASYRYTGVPSRFSGSGSGTDFTLTISSLQPEDFATYYCQQYYIYPYTFGQGTKVEIKRTVAAPDILLTQSPGTLSLSPGERATLSCRASQSIYTNIHWYQQKPGQAPRLLIKYASESISGIPDRFSGSGSGTDFTLTISRLEPEDFAVYYCQQNLNWPTTFGQGTKLEIK", "notes": "DVD-Ig, outer AB080 / inner AB400"}, "B6": {"name": "DVD2325 (bispecific antibody)", "VH": "EVQLVQSGGGLVKPGGSLRLSCAASGFTFSSFAMHWVRQAPGKGLEWISVIDTRGATYYADSVKGRFTISRDNAKNSLYLQMNSLRAEDTAVYYCARLGNFYYGMDVWGQGTTVTVSSASTKGPEVQLVQSGGGLVKPGGSLRLSCAASGFTFSSYAMHWVRQAPGKGLEWVAVISYDGSNKYYADSVKGRFTISRDNSKNTLYLQMNSLRAEDTAVYYCARFSGWPNNYYYYGMDVWGQGTTVTVSS", "VL": "EIVLTQSPGTLSVSPGERATLSCRASQSIGSSLHWYQQKPGQAPRLLIKYASQSLSGIPDRFSGSGSGTDFTLTISRLEPEDFAVYYCHQSSRLPHTFGQGTKVEIKRTVAAPDVVMTQSPLSLPVTPGEPASISCRSSQSLLHSNGFNYVDWYLQKPGQSPHLLIYFGSYRASGVPDRFSGSGSGTDFTLKISRVEAEDVGVYYCMQALQTPPWTFGQGTKVEIR", "notes": "DVD-Ig, outer AB077 / inner AB005"}, "B7": {"name": "DVD2327 (bispecific antibody)", "VH": "EVQLLESGGGLVQPGGSLRLSCTASGFTFSSYAMNWVRQAPGKGLEWVSAISGSGGTTFYADSVKGRFTISRDNSRTTLYLQMNSLRAEDTAVYYCAKDLGWSDSYYYYYGMDVWGQGTTVTVSSASTKGPEVQLVQSGGGLVKPGGSLRLSCAASGFTFSSYAMHWVRQAPGKGLEWVAVISYDGSNKYYADSVKGRFTISRDNSKNTLYLQMNSLRAEDTAVYYCARFSGWPNNYYYYGMDVWGQGTTVTVSS", "VL": "DIQMTQFPSSLSASVGDRVTITCRASQGIRNDLGWYQQKPGKAPKRLIYAASRLHRGVPSRFSGSGSGTEFTLTISSLQPEDFATYYCLQHNSYPCSFGQGTKLEIKRTVAAPDVVMTQSPLSLPVTPGEPASISCRSSQSLLHSNGFNYVDWYLQKPGQSPHLLIYFGSYRASGVPDRFSGSGSGTDFTLKISRVEAEDVGVYYCMQALQTPPWTFGQGTKVEIR", "notes": "DVD-Ig, outer AB011 / inner AB005"}, "B8": {"name": "DVD2319 (bispecific antibody)", "VH": "EVQLVESGGGLVQPGGSLRLSCAASGFTFSIYSMNWVRQAPGKGLEWVSYISSSSSTIYYADSVKGRFTISRDNAKNSLYLQMNSLRDEDTAVYYCARDRGDFDAFDIWGQGTMVTVSSASTKGPEVQLVQSGGGLVKPGGSLRLSCAASGFTFSSYAMHWVRQAPGKGLEWVAVISYDGSNKYYADSVKGRFTISRDNSKNTLYLQMNSLRAEDTAVYYCARFSGWPNNYYYYGMDVWGQGTTVTVSS", "VL": "DIQMTQSPSSLSASVGDRVTITCQASQDITNYLNWYQQKPGKAPKLLIYDASNLETGVPSRFSGSGSGTDFTFTISSLQPEDIATYNCQQCENFPITFGQGTRLEIKRTVAAPDVVMTQSPLSLPVTPGEPASISCRSSQSLLHSNGFNYVDWYLQKPGQSPHLLIYFGSYRASGVPDRFSGSGSGTDFTLKISRVEAEDVGVYYCMQALQTPPWTFGQGTKVEIR", "notes": "DVD-Ig, outer AB063 / inner AB005"}, "B9": {"name": "DVD2323 (bispecific antibody)", "VH": "QVQLQQWGAGLLKPSETLSLTCAVYGGSFSGYYWSWIRQPPGKGLEWIGEINHSGSTNYNPSLKSRVTISVETSKNQFSLKLSSVTAADTAVYYCARDKWTWYFDLWGRGTLVTVSSASTKGPEVQLVQSGGGLVKPGGSLRLSCAASGFTFSSYAMHWVRQAPGKGLEWVAVISYDGSNKYYADSVKGRFTISRDNSKNTLYLQMNSLRAEDTAVYYCARFSGWPNNYYYYGMDVWGQGTTVTVSS", "VL": "DIEMTQSPDSLAVSLGERATINCRSSQSVLYSSSNRNYLAWYQQNPGQPPKLLIYWASTRESGVPDRFSGSGSGTDFTLTISSLQAEDVAVYYCQQYYSTPRTFGQGTKVEIKRTVAAPDVVMTQSPLSLPVTPGEPASISCRSSQSLLHSNGFNYVDWYLQKPGQSPHLLIYFGSYRASGVPDRFSGSGSGTDFTLKISRVEAEDVGVYYCMQALQTPPWTFGQGTKVEIR", "notes": "DVD-Ig, outer AB062 / inner AB005"}, "B10": {"name": "DVD2321 (bispecific antibody)", "VH": "EVQLLESGGGLVQPGGSLRLSCAASGFTFSHYVMAWVRQAPGKGLEWVSSISSSGGWTLYADSVKGRFTISRDNSKNTLYLQMNSLRAEDTAVYYCTRGLKMATIFDYWGQGTLVTVSSASTKGPEVQLVQSGGGLVKPGGSLRLSCAASGFTFSSYAMHWVRQAPGKGLEWVAVISYDGSNKYYADSVKGRFTISRDNSKNTLYLQMNSLRAEDTAVYYCARFSGWPNNYYYYGMDVWGQGTTVTVSS", "VL": "QSALTQPASVSGSPGQSITISCTGTSSDVGSYNVVSWYQQHPGKAPKLIIYEVSQRPSGVSNRFSGSKSGNTASLTISGLQTEDEADYYCCSYAGSSIFVIFGGGTKVTVLGQPKAAPDVVMTQSPLSLPVTPGEPASISCRSSQSLLHSNGFNYVDWYLQKPGQSPHLLIYFGSYRASGVPDRFSGSGSGTDFTLKISRVEAEDVGVYYCMQALQTPPWTFGQGTKVEIR", "notes": "DVD-Ig, outer AB116 / inner AB005"}, "B11": {"name": "DVD2333 (bispecific antibody)", "VH": "EVQLLESGGGLVQPGGSLRLSCAASGFTFSHYVMAWVRQAPGKGLEWVSSISSSGGWTLYADSVKGRFTISRDNSKNTLYLQMNSLRAEDTAVYYCTRGLKMATIFDYWGQGTLVTVSSASTKGPQVQLQESGPGLVKPSEILSLTCTVSGGSISSHYWSWVRQPPGKGLEWIGYIYYSGSTNYNPSLKSRVTISVDTSKNQFSLNLSSVTAADTAVYYCARIPNYYDRSGYYPGYWYFDLWGRGTLVTVSS", "VL": "QSALTQPASVSGSPGQSITISCTGTSSDVGSYNVVSWYQQHPGKAPKLIIYEVSQRPSGVSNRFSGSKSGNTASLTISGLQTEDEADYYCCSYAGSSIFVIFGGGTKVTVLGQPKAAPQAVLTQPSSLSAPPGASASLTCTLRSGFNVDSYRISWYQQKPGSPPQYLLRYKSDSDKQQGSGVPSRFSGSKDASANAGILLISGLQSEDEADYYCMIWHSSAWVFGGGTKLTVL", "notes": "DVD-Ig, outer AB116 / inner AB034"}}}
{"target": "T1, EGFR on the cell surface (human, UniProt P00533 25-1210)", "T1 construct": "whole, on cells", "assay": "flow cytometry on cells, 2 ug/mL, C-terminal VD;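 note: cells stained for 30 to 60 min on ice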"}
{"binder": "B1", "GEO MEAN": 266}
{"binder": "B2", "GEO MEAN": 6.47}
{"binder": "B3", "GEO MEAN": 252}
{"binder": "B4", "GEO MEAN": 320}
{"binder": "B5", "GEO MEAN": 185}
{"target": "T2, Recombinant Human IGF1R (human, UniProt P08069 31-932)", "T2 construct": "bought reagent", "assay": "SPR (Biacore), N-terminal VD;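 note: capture of antibodies or DVD-Ig proteins on an anti-mouse IgG chip surface, recombinant antigen injected at 10–200 nM in HBS-EP running buffer at 25 °C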", "units": {"Kd": "nM", "koff": "s⁻¹", "kon": "M⁻¹ s⁻¹"}, "experimental": "(§1) The BIACORE assay (Biacore, Inc, Piscataway, N.J.) determined the affinity of antibodies or DVD-Ig proteins with kinetic measurements of on-rate and off-rate constants. Binding of antibodies or DVD-Ig proteins to a target antigen (for example, a purified recombinant target antigen) was determined by surface plasmon resonance-based measurements with a Biacore® 1000 or 3000 instrument (Biacore AB, Uppsala. Sweden) using running HBS-EP (10 mM HEPES [pH 7.4], 150 mM NaCl, 3 mM EDTA, and 0.005% surfactant P20) at 25° C. […] For example, approximately 5000 RU of goat anti-mouse IgG, (Fcγ), fragment specific polyclonal antibody (Pierce Biotechnology Inc, Rockford, Ill.) diluted in 10 mM sodium acetate (pH 4.5) was directly immobilized across a CM5 research grade biosensor chip using a standard amine coupling kit according to manufacturer's instructions and procedures at 25 μg/ml. Unreacted moieties on the biosensor surface were blocked with ethanolamine. Modified carboxymethyl dextran surface in flowcell 2 and 4 was used as a reaction surface. Unmodified carboxymethyl dextran without goat anti-mouse IgG in flow cell 1 and 3 was used as the reference surface. For kinetic analysis, rate equations derived from the 1:1 Langmuir binding model were fitted simultaneously to association and dissociation phases of all eight injections (using global fit analysis) with the use of Biaevaluation 4.0.1 software. Purified antibodies or DVD-Ig proteins were diluted in HEPES-buffered saline for capture across goat anti-mouse IgG specific reaction surfaces. Antibodies or DVD-Ig proteins to be captured as a ligand (25 μg/ml) were injected over reaction matrices at a flow rate of 5 μl/minute. The association and dissociation rate constants, kₒₙ (M⁻¹s⁻¹) and koff (s⁻¹) were determined under a continuous flow rate of 25 μl/minute. Rate constants were derived by making kinetic binding measurements at different antigen concentrations ranging from 10-200 nM. The equilibrium dissociation constant (M) of the reaction between antibodies or DVD-Ig proteins and the target antigen was then calculated from the kinetic rate constants by the following formula: KD=koff/kₒₙ. Binding was recorded as a function of time and kinetic rate constants were calculated."}
{"binder": "B6", "Kd": 0.11, "koff": "6.6e-06", "kon": 60000}
{"binder": "B7", "Kd": 1.5, "koff": "7e-05", "kon": 46000}
{"target": "T3, Recombinant Human ErbB3/FC Chimera-His tag (human, UniProt P21860 20-643)", "T3 construct": "bought reagent", "assay": "SPR (Biacore), N-terminal VD;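 note: capture of antibodies or DVD-Ig proteins on an anti-mouse IgG chip surface, recombinant antigen injected at 10–200 nM in HBS-EP running buffer at 25 °C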", "units": {"Kd": "nM", "koff": "s⁻¹", "kon": "M⁻¹ s⁻¹"}, "experimental": "as §1"}
{"binder": "B8", "Kd": 5.4, "koff": 0.0017, "kon": 310000}
{"binder": "B9", "Kd": 7.7, "koff": 0.00046, "kon": 60000}
{"binder": "B10", "Kd": 12, "koff": 0.00031, "kon": 25000}
{"binder": "B11", "binding result": "no binding (tested: 10-200 nM)"}
{"target": "T4, Recombinant Human MSP Receptor ECD-His tag (human, UniProt Q04912 25-957)", "T4 construct": "extracellular domain; bought reagent; also called RON", "assay": "SPR (Biacore), C-terminal VD;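 note: surface plasmon resonance with DVD-Ig proteins captured on an anti-IgG chip and recombinant antigen flowed over in HBS-EP buffer, Langmuir global fit, KD taken as koff/kon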", "experimental": "as §1"}
{"binder": "B8", "binding result": "no binding (tested: 10-200 nM)"}
{"binder": "B6", "binding result": "no binding (tested: 10-200 nM)"}
{"binder": "B9", "binding result": "no binding (tested: 10-200 nM)"}
{"binder": "B10", "binding result": "no binding (tested: 10-200 nM)"}
{"binder": "B7", "binding result": "no binding (tested: 10-200 nM)"}
{"binder": "B11", "binding result": "no binding (tested: 10-200 nM)"}
